Data on 7 sequences can be found in a protein production outcome set (Wang et al. 2014).

The data set is described as follows: label from the status in PepcDB records.
With “MAHELSAGSVFAGYRIERMLGAGGMGTVYLARNPDLPRSEALKVLAAELSRDLDFRARFVREADVAAGLDHPNIVAVHQRGQFEGRLWIAMQFVDGGNAEDALRAATMTTARAVYVIGEVAKALDYAHQQGVIHRDIKPANFLLSRAAGGDERVLLSDFGIARALGDTGLTSTGSVLATLAYAAPEVLAGQGFDGRADLYSLGCALFRLLTGEAPFAAGAGAAVAVVAGHLHQPPPTVSDRVPGLSAAMDAVIATAMAKDPMRRFTSAGEFAHAAAAALYGGATDGWVPPSPAPHVISQGAVPGSPWWQHPVGSVTALATPPGHGWPPGLPPLPRRPRRYRRGVAAVAAVMVVAAAAVTAVTMTSHQPRTATPPSAAALSPTSSSTTPPQPPIVTRSRLPGLLPPLDDVKNFVGIQNLVAHEPMLQPQTPNGSINPAECWPAVGGGVPSAYDLGTVIGFYGLTIDEPPTGTAPNQVGQLIVAFRDAATAQRHLADLASIWRRCGGRTVTLFRSEWRRPVELSTSVPEVVDGITTMVLTAQGPVLRVREDHAIAAKNNVLVDVDIMTPDTSRGQQAVIGITNYILAKIPG”, the protein production entry was “failed”.

As for “MAHHHHHHMNPHPVEPRDQIAELLVESPLFSFNCAHFIAFKGFRETLHGHNYNVSLRLRGNIQGDGYVIDFSILKEKVRKVCKQLDHHFILPMYSDVLNIQEVNDNFKITCEDNSEYSFPKRDCVQIPIKHSSTEEIGLYILNQLIEEIDLPFLKTRSVNYMEVTVSESPSQKATVHRNI”, the protein production result is listed as “not failed”.

In the case of “MAHIEKVPQRPGFSWRYRRIDEVEKEYDLHFHDDVFELVIHRHFTGSLHIGHHELEVTHNQMLLIAPGVPHSIHSTLVESKCETHVIWFKREWIANLMFYCAELRKLDPLLKAANKGVVFSERTAQHVVDLLHELMTFPAMEQLSRFLHVLSLIAHDEGAKTLMTHSYLSMSEHELQERERVASVNAYLEQHFATKVTLADLANYLSLSESAVTRLFQKHFKEPFSQRLMKLRINHAADLLQSTSLPIGIVFERVGYRNQALFNRHFKTYKGLTPRDYRQHYQQRIQP”, the protein production entry is “failed”.

“MAHLVITIGCEYGAKGNQIGKKVAKDLGIKFYDRDTVDEIIKEVGIPKDIMEKVEEGITIAGKGAEGDVRGSFSKYADLTERAIHVQKTIIRKLSDRESCVIIGRSADYILKEHKPILRIFIYSPDEVRIENVMKSHNLSEDDAKLFITEKDKRYHKRHMALTGSNRGDRHNRDMLIDSSLLGVDGTAELIESLARKVVENESKTEAGGDK”: the protein production result is “not failed”.

In the case of “MAHVRLFRHYIHLPFVILGLIDLIVMGLAFALAVFFRFFGELEFFLDNLVFVLPSITIFALFNLIVMIALGVHQSRVEEGMSGMMLRTIMAMILAIPLHGFAYFVADDWLWYLGSFGLLTSATVLGIFSLGIARVVFFAVVGKDRFKRRVLVLGAGRRAKQMFEDLTTPFNRKGFSLDGFVPMPDDTVEVDEQYLINLPTSLHDYVLRHPVREIVVAVDDRRRGLPMEDLLECKMEGVHIIDGANFYERESRKVALEMITRGWLVFSDGFTVSSVYGVGKRALDVLASGTLLLATFPIMILTAIAIKLEDGLKAPVIYSQERVGLNNQVFKVHKFRSMITDAEKNGAVWARKNDTRVTRVGEFIRKVRIDELPQIFNVLNGTMAFVGPRPERPVFVEQLSEKIPFYAERHRVKPGLTGWAQLCFAYADNEEDTREKLRYDLYYIKNQSLLLDLLIIIQTVEVVLFKKGSR”, the protein production result was “failed”.

For the sequence “MAIASSSPSSSSNVSVIPTGPQVFISFRGKELRKGFISFLVPALKKKNINVFIDEHEVRGKDLISLFRRIGESKIALVIFSEGYTESKWCLDELVQIKKCVDQKKIIAIPIFYKLDPAVVKGLKGKFGDKFRDLIERYHHEPERYQKWTEALTSVSRTFALCLPEHRLRFFNHKNCLFLVAQDTNDKSEKDFIRSIIKEVKKALSNISRERNGDREEIDDCFVVSERKLTTDMYDTPE”, the protein production entry was “failed”.

Consider “MAIDTTSSAPVHEPQPPLDTRLSTRDKLVLFVLCAAQFMVALDFSVLNVALPVLGRDLGMSQSALQWAVTAFALPSGGFLLLFGRIGDLYGRRRLFLTGLALFGTASLLATFAWDPASFLAGRALQGLGAAAIVPTGMSLLTTTFPEGPARDRALGISGTLLSLGFTVGMVAGGVLTDAFGWRSTMGLLTLFALIVLPLAPGLLPESRTPDRPRLDIPGAVTVTGGLLSLIYALSTAAERGFGGTDVIATLVAGVLLLAAFVTVESHAEAPLVSLPMLRRRTVAWGNLGGLITFSMMSTVVFVLTLYLQETLGLSAFETGLVFGVQGVLSAVAGANASKVIGRLGARRTLVVSLAGQGAFVATLVALGDGGWSVWLATAAVSLASMCHLGAIISYGLTVTSGVPDDEQGLATGLVTSTQQVGITIGIPLLGVLATTSSDLLAGVHTVLALDAVIVLAAAVLIAVGLGRRPATAPGAASGAVEAEAVGSR”, for which the protein production entry is given as “failed”.
